In patent US20260042834A1 (HBM ALPHA THERAPEUTICS, published 2026):

T1: corticotropin-releasing hormone (CRH) peptide (human and mouse (same sequence), not fully specified)
T1 peptide: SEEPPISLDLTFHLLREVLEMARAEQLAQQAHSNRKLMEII


Target: T1, corticotropin-releasing hormone (CRH) …
Assay: cell-based or functional assay

Binder | hCRHR1 Luciferase Reporter Assay IC50 [nM] | mCrhr1 Luciferase Reporter Assay IC50 [nM] | hCRHR1 Reporter IC50 [nM]
PR302341-47 (antibody, human IgG1, kappa, V domains shown) VH: QVQLVQSGAEVKKPGASVKVSCKASGYTFTDYFMKWVRQAPGQGLEWMGVINPNSGDIFYNQKFKGRVTMTVDKSTSTAYMELSSLRSEDTAVYYCARGTDRALFAYWGQGTLVTVSS VL: DVVMTQTPLSSPVTLGQPASISCRSGQSIVHSDANTYLEWYQQRPGQPPRLLIYKVSNRFSGVPDRFSGSGAGTDFTLKISRVEAEDLGVYYCFQGSHIPWTFGGGTKVEIKR | 1.04 | 1.6 | –
PR302341-52 (antibody, human IgG1, kappa, V domains shown) VH: QVQLVQSGAEVKKPGASVKVSCKASGYTFTDYFMKWVRQAPGQGLEWMGVINPNNADIFYNQKFKGRVTMTVDKSTSTAYMELSSLRSEDTAVYYCARGTDRALFAYWGQGTLVTVSS VL: DVVMTQTPLSSPVTLGQPASISCRSGQSIVHSSGNTYLEWYQQRPGQPPRLLIYKVSNRFSGVPDRFSGSGAGTDFTLKISRVEAEDLGVYYCFQGSHIPWTFGGGTKVEIKR | 0.946 | 3.29 | –
PR302341-50 (antibody, human IgG1, kappa, V domains shown) VH: QVQLVQSGAEVKKPGASVKVSCKASGYTFTDYFMKWVRQAPGQGLEWMGVINPNSGDIFYNQKFKGRVTMTVDKSTSTAYMELSSLRSEDTAVYYCARGTDRALFAYWGQGTLVTVSS VL: DVVMTQTPLSSPVTLGQPASISCRSGQSIVHSEGNTYLEWYQQRPGQPPRLLIYKVSNRFSGVPDRFSGSGAGTDFTLKISRVEAEDLGVYYCFQGSHIPWTFGGGTKVEIKR | 1.48 | – | –
PR302341-53 (antibody, human IgG1, kappa, V domains shown) VH: QVQLVQSGAEVKKPGASVKVSCKASGYTFTDYFMKWVRQAPGQGLEWMGVINPNSGDIFYNQKFKGRVTMTVDKSTSTAYMELSSLRSEDTAVYYCARGTDRALFAYWGQGTLVTVSS VL: DVVMTQTPLSSPVTLGQPASISCRSGQSIVHSSGNTYLEWYQQRPGQPPRLLIYKVSNRFSGVPDRFSGSGAGTDFTLKISRVEAEDLGVYYCFQGSHIPWTFGGGTKVEIKR | 1.7 | 5.36 | –
PR302341-56 (antibody, human IgG1, kappa, V domains shown) VH: QVQLVQSGAEVKKPGASVKVSCKASGYTFTDYFMKWVRQAPGQRLEWMGVINPNSGDIFYNQKFKGRVTITRDTSASTAYMELSSLRSEDTAVYYCARGTDRALFAYWGQGTLVTVSS VL: DVVMTQSPLSLPVTLGQPASISCRSGQSIVHSDGNTYLEWYQQRPGQSPRLLIYKVSNRFSGVPDRFSGSGSGTDFTLKISRVEAEDLGVYYCFQGSHIPWTFGGGTKVEIKR | 0.738 | – | –
PR302341-67 (antibody, human IgG1, kappa, V domains shown) VH: QVQLVQSGAEVKKPGASVKVSCKASGYTFTDYFMKWVRQAPGQGLEWMGVINPNNGDIFYNQKFKGRVTMTVDKSTSTAYMELSSLRSEDTAVYYCARGTDRALFAYWGQGTLVTVSS VL: DVVMTQTPLSSPVTLGQPASISCRSGQSIVHSDANTYLEWYQQRPGQPPRLLIYKVSNRFSGVPDRFSGSGAGTDFTLKISRVEAEDLGVYYCFQGSHIPWTFGGGTKVEIKR | 0.128 | – | –
PR302341-62 (antibody, human IgG1, kappa, V domains shown) VH: QVQLVQSGAEVKKPGASVKVSCKASGYTFTDYFMKWVRQAPGQRLEWMGVINPNSGDIFYNQKFKGRVTITRDTSASTAYMELSSLRSEDTAVYYCARGTDRALFAYWGQGTLVTVSS VL: DVVMTQSPLSLPVTLGQPASISCRSGQSIVHSEGNTYLEWYQQRPGQSPRLLIYKVSNRFSGVPDRFSGSGSGTDFTLKISRVEAEDLGVYYCFQGSHIPWTFGGGTKVEIKR | 2.68 | – | –
PR302341-57 (antibody, human IgG1, kappa, V domains shown) VH: QVQLVQSGAEVKKPGASVKVSCKASGYTFTDYFMKWVRQAPGQRLEWMGVINPNQGDIFYNQKFKGRVTITRDTSASTAYMELSSLRSEDTAVYYCARGTDRALFAYWGQGTLVTVSS VL: DVVMTQSPLSLPVTLGQPASISCRSGQSIVHSDGNTYLEWYQQRPGQSPRLLIYKVSNRFSGVPDRFSGSGSGTDFTLKISRVEAEDLGVYYCFQGSHIPWTFGGGTKVEIKR | 0.573 | 6.48 | –
PR302341-58 (antibody, human IgG1, kappa, V domains shown) VH: QVQLVQSGAEVKKPGASVKVSCKASGYTFTDYFMKWVRQAPGQRLEWMGVINPNNADIFYNQKFKGRVTITRDTSASTAYMELSSLRSEDTAVYYCARGTDRALFAYWGQGTLVTVSS VL: DVVMTQSPLSLPVTLGQPASISCRSGQSIVHSDANTYLEWYQQRPGQSPRLLIYKVSNRFSGVPDRFSGSGSGTDFTLKISRVEAEDLGVYYCFQGSHIPWTFGGGTKVEIKR | 0.571 | 3.54 | –
PR302341-68 (antibody, human IgG1, kappa, V domains shown) VH: QVQLVQSGAEVKKPGASVKVSCKASGYTFTDYFMKWVRQAPGQGLEWMGVINPNNGDIFYNQKFKGRVTMTVDKSTSTAYMELSSLRSEDTAVYYCARGTDRALFAYWGQGTLVTVSS VL: DVVMTQTPLSSPVTLGQPASISCRSGQSIVHSEGNTYLEWYQQRPGQPPRLLIYKVSNRFSGVPDRFSGSGAGTDFTLKISRVEAEDLGVYYCFQGSHIPWTFGGGTKVEIKR | 0.418 | – | –
PR302341-63 (antibody, human IgG1, kappa, V domains shown) VH: QVQLVQSGAEVKKPGASVKVSCKASGYTFTDYFMKWVRQAPGQRLEWMGVINPNQGDIFYNQKFKGRVTITRDTSASTAYMELSSLRSEDTAVYYCARGTDRALFAYWGQGTLVTVSS VL: DVVMTQSPLSLPVTLGQPASISCRSGQSIVHSEGNTYLEWYQQRPGQSPRLLIYKVSNRFSGVPDRFSGSGSGTDFTLKISRVEAEDLGVYYCFQGSHIPWTFGGGTKVEIKR | 2.05 | – | –
PR302341-60 (antibody, human IgG1, kappa, V domains shown) VH: QVQLVQSGAEVKKPGASVKVSCKASGYTFTDYFMKWVRQAPGQRLEWMGVINPNQGDIFYNQKFKGRVTITRDTSASTAYMELSSLRSEDTAVYYCARGTDRALFAYWGQGTLVTVSS VL: DVVMTQSPLSLPVTLGQPASISCRSGQSIVHSDANTYLEWYQQRPGQSPRLLIYKVSNRFSGVPDRFSGSGSGTDFTLKISRVEAEDLGVYYCFQGSHIPWTFGGGTKVEIKR | 0.878 | 4.7 | –
PR302341-51 (antibody, human IgG1, kappa, V domains shown) VH: QVQLVQSGAEVKKPGASVKVSCKASGYTFTDYFMKWVRQAPGQGLEWMGVINPNQGDIFYNQKFKGRVTMTVDKSTSTAYMELSSLRSEDTAVYYCARGTDRALFAYWGQGTLVTVSS VL: DVVMTQTPLSSPVTLGQPASISCRSGQSIVHSEGNTYLEWYQQRPGQPPRLLIYKVSNRFSGVPDRFSGSGAGTDFTLKISRVEAEDLGVYYCFQGSHIPWTFGGGTKVEIKR | 1.66 | – | –
PR302341-48 (antibody, human IgG1, kappa, V domains shown) VH: QVQLVQSGAEVKKPGASVKVSCKASGYTFTDYFMKWVRQAPGQGLEWMGVINPNQGDIFYNQKFKGRVTMTVDKSTSTAYMELSSLRSEDTAVYYCARGTDRALFAYWGQGTLVTVSS VL: DVVMTQTPLSSPVTLGQPASISCRSGQSIVHSDANTYLEWYQQRPGQPPRLLIYKVSNRFSGVPDRFSGSGAGTDFTLKISRVEAEDLGVYYCFQGSHIPWTFGGGTKVEIKR | 0.507 | 1.46 | –
PR302341-61 (antibody, human IgG1, kappa, V domains shown) VH: QVQLVQSGAEVKKPGASVKVSCKASGYTFTDYFMKWVRQAPGQRLEWMGVINPNNADIFYNQKFKGRVTITRDTSASTAYMELSSLRSEDTAVYYCARGTDRALFAYWGQGTLVTVSS VL: DVVMTQSPLSLPVTLGQPASISCRSGQSIVHSEGNTYLEWYQQRPGQSPRLLIYKVSNRFSGVPDRFSGSGSGTDFTLKISRVEAEDLGVYYCFQGSHIPWTFGGGTKVEIKR | 1.88 | – | 1.82
PR302341-54 (antibody, human IgG1, kappa, V domains shown) VH: QVQLVQSGAEVKKPGASVKVSCKASGYTFTDYFMKWVRQAPGQGLEWMGVINPNQGDIFYNQKFKGRVTMTVDKSTSTAYMELSSLRSEDTAVYYCARGTDRALFAYWGQGTLVTVSS VL: DVVMTQTPLSSPVTLGQPASISCRSGQSIVHSSGNTYLEWYQQRPGQPPRLLIYKVSNRFSGVPDRFSGSGAGTDFTLKISRVEAEDLGVYYCFQGSHIPWTFGGGTKVEIKR | 0.732 | 4.09 | –
PR302341-55 (antibody, human IgG1, kappa, V domains shown) VH: QVQLVQSGAEVKKPGASVKVSCKASGYTFTDYFMKWVRQAPGQRLEWMGVINPNNADIFYNQKFKGRVTITRDTSASTAYMELSSLRSEDTAVYYCARGTDRALFAYWGQGTLVTVSS VL: DVVMTQSPLSLPVTLGQPASISCRSGQSIVHSDGNTYLEWYQQRPGQSPRLLIYKVSNRFSGVPDRFSGSGSGTDFTLKISRVEAEDLGVYYCFQGSHIPWTFGGGTKVEIKR | 0.105 | 3.19 | –
PR302341-59 (antibody, human IgG1, kappa, V domains shown) VH: QVQLVQSGAEVKKPGASVKVSCKASGYTFTDYFMKWVRQAPGQRLEWMGVINPNSGDIFYNQKFKGRVTITRDTSASTAYMELSSLRSEDTAVYYCARGTDRALFAYWGQGTLVTVSS VL: DVVMTQSPLSLPVTLGQPASISCRSGQSIVHSDANTYLEWYQQRPGQSPRLLIYKVSNRFSGVPDRFSGSGSGTDFTLKISRVEAEDLGVYYCFQGSHIPWTFGGGTKVEIKR | 1.04 | 4 | –
PR302341-49 (antibody, human IgG1, kappa, V domains shown) VH: QVQLVQSGAEVKKPGASVKVSCKASGYTFTDYFMKWVRQAPGQGLEWMGVINPNNADIFYNQKFKGRVTMTVDKSTSTAYMELSSLRSEDTAVYYCARGTDRALFAYWGQGTLVTVSS VL: DVVMTQTPLSSPVTLGQPASISCRSGQSIVHSEGNTYLEWYQQRPGQPPRLLIYKVSNRFSGVPDRFSGSGAGTDFTLKISRVEAEDLGVYYCFQGSHIPWTFGGGTKVEIKR | 1.34 | – | –
PR302341-69 (antibody, human IgG1, kappa, V domains shown) VH: QVQLVQSGAEVKKPGASVKVSCKASGYTFTDYFMKWVRQAPGQGLEWMGVINPNNGDIFYNQKFKGRVTMTVDKSTSTAYMELSSLRSEDTAVYYCARGTDRALFAYWGQGTLVTVSS VL: DVVMTQTPLSSPVTLGQPASISCRSGQSIVHSSGNTYLEWYQQRPGQPPRLLIYKVSNRFSGVPDRFSGSGAGTDFTLKISRVEAEDLGVYYCFQGSHIPWTFGGGTKVEIKR | 0.552 | – | –
